This is an account of results in patent publication US20230398184A1, “METHODS OF INDUCING STEM CELL MOBILIZATION” (NeoImmuneTech, Inc., priority 2020, published 2023).

Common to all, as to format: in vivo, C57BL/6 mice
In test [1] the test system is LSK cells and HSCs. In words: IL-7 and AMD3100 combination, HSC mobilization into peripheral blood. The following applies: IL-7 0.5 mg/kg day 0; AMD3100 5 mg/kg 1 hour prior to analysis; day 3. As for the experimental part: As described herein, AMD3100 (CXCR4 antagonist) is another regimen that is commonly used to promote the migration of HSCs from the bone marrow into the peripheral blood. Cashen et al., Future Oncol 3(1): 19-27 (February 2007). To determine whether IL-7 can also enhance the HSC mobilization effects of AMD3100, C57BL/6 animals received a single subcutaneous administration of the following: (i) buffer alone, (ii) IL-7 alone (0.5 mg/kg), (iii) AMD3100 (5 mg/kg), and (iv) IL-7 (0.5 mg/kg) in combination with AMD3100 (5 mg/kg). […] At day 3 post initial administration, the number of both LSK cells and HSCs were again assessed in the peripheral blood using flow cytometry.

Test [2] relates to LSK cells and HSCs. In words: Comparison of IL-7 with G-CSF and G-CSF + AMD3100 on mobilization of HSCs to peripheral blood. The settings on record: PEG-rhG-CSF 5 μg s.c. day 3; rhG-CSF 6.25 μg/day days 0-3. As for the experimental part:
As described herein, granulocyte colony stimulating factor (G-CSF) is a standard regimen used in the clinic to induce HSC mobilization. Therefore, the potency of IL-7 was compared to that of G-CSF on inducing the mobilization of HSCs to peripheral blood was assessed. Briefly, C57BL/6 mice were treated with one of the following: (i) control buffer (“control”), (ii) IL-7 protein (“IL-7”) (2.5 mg/kg; subcutaneous), (iii) long-acting pegylated recombinant human G-CSF (“PEG-rhG-CSF”) (5 μg; subcutaneous), or (iv) non-pegylated recombinant human G-CSF (“rhG-CSF”) (twice a day (6.25 μg/day) at days 0, 1, 2, and 3 (i.e., total dose of 25 μg/mouse); subcutaneous). In animals treated with the IL-7 protein or PEG-rhG-CSF, the number of LSK cells and HSCs was determined in the peripheral blood at day 3 post administration. In animals treated with rhG-CSF, the number of LSK cells and HSCs in the peripheral blood was assessed within 6-8 hours after last rhG-CSF administration.
In this regard, the potency of IL-7 protein alone to the G-CSF+AMD3100 combinational regimen was next compared. Briefly, normal C57BL/6 mice were administered with one of the following: (i) control buffer, (ii) IL-7 protein alone, (iii) pegylated recombinant human G-CSF (“G-CSF”), or (iv) G-CSF in combination with AMD3100. Then, the number of HSCs in the peripheral blood was assessed at day 3 post administration.

Test [3] has as its system LSK cells and HSCs. As to the kind of experiment: IL-7 and G-CSF combination, HSC mobilization into peripheral blood. The following applies: IL-7 0.5 mg/kg or G-CSF 5 μg s.c., day 3. As for the experimental part:
To determine whether the combined treatment of IL-7 and G-CSF can further improve the mobilization of HSCs into the peripheral blood, C57BL/6 animals received a single subcutaneous administration of one of the following: (i) buffer alone, (ii) IL-7 alone (0.5 mg/kg), (iii) pegylated recombinant human G-CSF alone (5 μg), and (iv) IL-7 (0.5 mg/kg) in combination with G-CSF (5 μg). Then, at day 3 post administration, both the number of LSK cells and HSCs in the peripheral blood were assessed using flow cytometry.

Turning to `c1cc(CN2CCCNCCNCCCNCC2)ccc1CN1CCCNCCNCCCNCC1` [AMD3100], the “amount of LSK cells and HSCs in peripheral blood vs control” value in test [1] was “comparable to that of the control animals”.

B1: PEG-rhG-CSF: long-acting pegylated recombinant human G-CSF (protein, UniProt P09919 31-207, looked up)
Granulocyte …: TPLGPASSLPQSFLLKCLEQVRKIQGDGAALQEKLVSECATYKLCHPEELVLLGHSLGIPWAPLSSCPSQALQLAGCLSQLHSGLFLYQGLLQALEGISPELGPTLDTLQLDVADFATTIWQQMEELGMAPALQPTQGAMPAFASAFQRRAGGVLVASHLQSFLEVSYRVLRHLAQP
modifications: PEG
Turning to B1, the “efficacy of mobilization, the two types of G-CSF compared” value in test [2] is “comparable efficacy of mobilization”. Moreover, the “amount of LSK cells in peripheral blood vs buffer alone” value in test [3] is given as “increased amount”.

B2: rhG-CSF: non-pegylated recombinant human G-CSF (protein, UniProt P09919 31-207, looked up)
Granulocyte …: TPLGPASSLPQSFLLKCLEQVRKIQGDGAALQEKLVSECATYKLCHPEELVLLGHSLGIPWAPLSSCPSQALQLAGCLSQLHSGLFLYQGLLQALEGISPELGPTLDTLQLDVADFATTIWQQMEELGMAPALQPTQGAMPAFASAFQRRAGGVLVASHLQSFLEVSYRVLRHLAQP
For the molecule B2, in test [2], the “efficacy of mobilization, the two types of G-CSF compared” value is “comparable efficacy of mobilization”.
